Drawing on patent US20100015637A1 (AbbVie / Abbott, published 2010), this text covers % Inhibition, PlGF-1 Measured and RLU for 3 molecules.

Assay [1] has as its target human PlGF-1 comprising amino acids 1-137 produced in human embryonic kidney cells (human) (UniProt P49763). Kind of assay: Format 2 …, capture MAb264, detection Pb264; sFlt-1 0 pmol/L (ratio 0).
Assay [2] has the same target. Briefly: Format 1 …, capture 2-826-335, detection 1-255-713; sFlt-1 1227 pmol/L (ratio 40).
Assay [3] has the same target. Kind of assay: Format 1 …, capture 2-826-335, detection 1-255-713; sFlt-1 153 pmol/L (ratio 5).
Assay [4] shares this target. Briefly: Format 1 …, capture 2-826-335, detection 1-255-713; sFlt-1 9200 pmol/L (ratio 300).
Assay [5] shares this target. Briefly: Format 1 …, capture 2-826-335, detection 1-255-713; sFlt-1 2300 pmol/L (ratio 75).
For assay [6] the target is unchanged. Kind of assay: Format 2 …, capture MAb264, detection Pb264; sFlt-1 1533 pmol/L (ratio 50).
Assay [7] has the same target. Briefly: Format 3 Quantikine ELISA, capture MAb264, detection Pb264; sFlt-1 613 pmol/L (ratio 20). A general note: ELISA stands for enzyme-linked immunosorbent assay.
Assay [8] concerns the target T1, human PlGF-1 comprising amino acids 1-137 produced in human embryonic kidney cells (human, UniProt P49763 19-221).
T1 construct: Mature human PlGF-1 with 6xHis tag; also called HEK (1-137); full length HEK human PlGF-1 (1-137)
T1 sequence: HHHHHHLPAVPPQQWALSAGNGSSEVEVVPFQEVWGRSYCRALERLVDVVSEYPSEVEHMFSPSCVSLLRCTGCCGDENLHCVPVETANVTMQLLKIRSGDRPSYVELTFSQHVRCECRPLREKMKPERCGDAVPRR
Briefly: … sandwich, capture MAb255, detection pAb264; antigen 1500 pg/mL.

Assay [9] has as its target T2, human PlGF-1 fragment (comprising amino acids 17-131) produced in human embryonic kidney cells (human, UniProt P49763 35-221).
T2 sequence: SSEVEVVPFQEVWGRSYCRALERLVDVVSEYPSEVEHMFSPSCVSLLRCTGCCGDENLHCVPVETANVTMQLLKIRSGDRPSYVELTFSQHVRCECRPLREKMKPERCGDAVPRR
The assay is described as above.

In assay [10] the target is T3, CHO human PlGF-1 comprising amino acids 1-137 (human PlGF-1-His (1-131), CHO 6305) (human, UniProt P49763 19-221, N-glycans at N21 (completely glycosylated) and N89 (partially glycosylated)).
T3 construct: Mature human PlGF-1 with 6xHis tag (137 amino acids); also called CHO (1-137)
T3 sequence: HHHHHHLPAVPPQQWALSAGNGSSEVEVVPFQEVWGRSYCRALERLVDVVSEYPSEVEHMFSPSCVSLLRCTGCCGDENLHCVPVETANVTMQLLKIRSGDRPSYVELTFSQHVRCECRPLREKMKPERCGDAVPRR
The assay is described as above.

Assay [11] has as its target T4, CHO human PlGF-1 fragment (comprising amino acids 17-131; ATCC PTA-8540) (human, UniProt P49763 35-221).
T4 sequence: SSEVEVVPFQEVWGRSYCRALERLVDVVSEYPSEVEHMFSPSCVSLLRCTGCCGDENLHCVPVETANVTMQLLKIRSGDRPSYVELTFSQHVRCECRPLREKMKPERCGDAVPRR
Kind of assay: … sandwich, capture MAb255, detection MAb826; antigen 1500 pg/mL. Summed up:
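Human PlGF-1 antigen preparations, including CHO cell-expressed recombinant forms, spanned 0 to 1500 pg/mL in a sandwich immunoassay. A monoclonal anti-human PlGF-1 antibody, immobilized on magnetic microparticles through passive coating and EDAC cross-linking, captured the antigen, and an acridinium ester-labeled monoclonal anti-human PlGF-1 antibody detected it. Chemiluminescent relative light units (RLU) were recorded for every antigen level.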

In assay [12] the target is recombinant human PlGF-1 (comprising amino acids 1-131) expressed in E. coli (R&D Systems) (human) (UniProt P49763). Briefly: … sandwich, capture MAb255, detection MAb826; antigen 1500 pg/mL.
For assay [13] the target is unchanged. Kind of assay: … sandwich, capture MAb255, detection MAb826; antigen 0 pg/mL (blank).
In assay [14] the target is T1, human PlGF-1 comprising amino acids …. Kind of assay: … sandwich, capture MAb826, detection pAb264; antigen 60 pg/mL.
Assay [15] addresses T2, human PlGF-1 fragment (comprising amino …). The assay is described as above.
For assay [16], the target named is T4, CHO human PlGF-1 fragment (comprising …). The description is as above.
In assay [17] the target is T3, CHO human PlGF-1 comprising amino acids …. The description is as above.
Assay [18] has as its target recombinant human PlGF-1 (comprising amino acids 1-131) expressed in E. coli (R&D Systems) (human) (UniProt P49763). Kind of assay: … sandwich, capture MAb826, detection pAb264; antigen 250 pg/mL.
Assay [19] has the same target. Kind of assay: … sandwich, capture MAb826, detection pAb264; antigen 750 pg/mL.

In general, % Inhibition refers to the percentage by which the read-out fell short of the control. As to “native sFlt-1, isolated from human placental tissue (from UniProt P17948 27-687) (receptor)”, the % Inhibition in [1] amounted to 0%; in [2] it was 91.9%; in assay [3], 64.1%; in assay [4], 95.9%; in assay [5] it was 93.6%; in assay [6] it was 93.6%. For the same molecule, in [7], the % Inhibition is 40.4%. For the same molecule, the PlGF-1 Measured came out at 786 pg/mL in assay [1]; 83.2 pg/mL in assay [2]; 367 pg/mL in assay [3]; 42.1 pg/mL in assay [4]; 65 pg/mL in assay [5]; 50.4 pg/mL in [6]. For the same molecule, the PlGF-1 Measured in assay [7] was determined as 515 pg/mL.

B1: monoclonal antibody 1-255-713 (produced by murine hybridoma cell line 1-255-713, ATCC PTA-8536) (antibody, mouse IgG2a, V domains shown)
VH: QVHLQQSGAELMKPGASVKISCKATGYTFSSYWIEWVKQRPGHGLEWIGEILPGSVSNNFNEKFKDKATLTADPSSNTAYIQVSSLTSEDSAVYYCARSTGFYYGGNYFDHWGQGTTLAVSS
VL: DVVMTQTPLSLPVSPGDQASISCRSSQSLVHSNGHTYLHWYLQKPGQSPKLLIYKVSNRFSGVPDRVSGSGSGTDFTLKISRVEAEDLGVYFCSQSTHVPPTFGGGTKLEIKR
notes: also called MAb255
Regarding B1, the RLU in assay [8] turned out to be 2.14e+06 RLU; in assay [9], 1.62e+06 RLU; in [10], 1.05e+06 RLU; in assay [11], 750000 RLU; in [12], 1.35e+06 RLU; in [13], 6110 RLU.

B2: monoclonal antibody 2-826-335 (produced by murine hybridoma cell line 2-826-335, ATCC PTA-8539) (antibody, mouse IgG1, V domains shown)
VH: QVQLKQSGPGLVQPSQSLSITCTVSGFSLTTYGIHWVRQSPGKGLEWLGVMWSGGDTDYDAAFISRLSISKDNSKSQVFFKMNSLQANDTGIYYCARYRFYGMDYWGQGTSVTVSS
VL: AIQMTQSSSSFSVSLGDRVTITCKASEDIYNRFAWYQQKPGNAPRLLISGAASLEAGVPSRFSGSGSGQDYTLSITSLQTEDVATYYCQQYWSTPWTFGGGTKLEIKR
notes: also called MAb826
For the molecule B2, the RLU was determined as 47700 RLU in assay [14]; 36900 RLU in assay [15]; 28200 RLU in assay [16]; 22200 RLU in assay [17]; 231000 RLU in [18]; 606000 RLU in assay [19].
